Assay results: PMC5002983, “Hepatocyte Growth Factor Modulates MET Receptor Tyrosine Kinase and β-Catenin Functional Interactions to Enhance Synapse Formation” (eNeuro, 2016)

B1: MET receptor tyrosine kinase (receptor, UniProt P16056 25-1379, looked up)
chain: ECKEALVKSEMNVNMKYQLPNFTAETPIQNVVLHGHHIYLGATNYIYVLNDKDLQKVSEFKTGPVLEHPDCLPCRDCSSKANSSGGVWKDNINMALLVDTYYDDQLISCGSVNRGTCQRHVLPPDNSADIQSEVHCMFSPEEESGQCPDCVVSALGAKVLLSEKDRFINFFVGNTINSSYPPGYSLHSISVRRLKETQDGFKFLTDQSYIDVLPEFLDSYPIKYIHAFESNHFIYFLTVQKETLDAQTFHTRIIRFCSVDSGLHSYMEMPLECILTEKRRKRSTREEVFNILQAAYVSKPGANLAKQIGASPSDDILFGVFAQSKPDSAEPVNRSAVCAFPIKYVNDFFNKIVNKNNVRCLQHFYGPNHEHCFNRTLLRNSSGCEARSDEYRTEFTTALQRVDLFMGRLNQVLLTSISTFIKGDLTIANLGTSEGRFMQVVLSRTAHLTPHVNFLLDSHPVSPEVIVEHPSNQNGYTLVVTGKKITKIPLNGLGCGHFQSCSQCLSAPYFIQCGWCHNQCVRFDECPSGTWTQEICLPAVYKVFPTSAPLEGGTVLTICGWDFGFRKNNKFDLRKTKVLLGNESCTLTLSESTTNTLKCTVGPAMSEHFNVSVIISNSRETTQYSAFSYVDPVITSISPRYGPQAGGTLLTLTGKYLNSGNSRHISIGGKTCTLKSVSDSILECYTPAQTTSDEFPVKLKIDLANRETSSFSYREDPVVYEIHPTKSFISGGSTITGIGKTLNSVSLPKLVIDVHEVGVNYTVACQHRSNSEIICCTTPSLKQLGLQLPLKTKAFFLLDGILSKHFDLTYVHNPVFEPFEKPVMISMGNENVVEIKGNNIDPEAVKGEVLKVGNQSCESLHWHSGAVLCTVPSDLLKLNSELNIEWKQAVSSTVLGKVIVQPDQNFAGLIIGAVSISVVVLLLSGLFLWMRKRKHKDLGSELVRYDARVHTPHLDRLVSARSVSPTTEMVSNESVDYRATFPEDQFPNSSQNGACRQVQYPLTDLSPILTSGDSDISSPLLQNTVHIDLSALNPELVQAVQHVVIGPSSLIVHFNEVIGRGHFGCVYHGTLLDNDGKKIHCAVKSLNRITDIEEVSQFLTEGIIMKDFSHPNVLSLLGICLRSEGSPLVVLPYMKHGDLRNFIRNETHNPTVKDLIGFGLQVAKGMKYLASKKFVHRDLAARNCMLDEKFTVKVADFGLARDMYDKEYYSVHNKTGAKLPVKWMALESLQTQKFTTKSDVWSFGVLLWELMTRGAPPYPDVNTFDITIYLLQGRRLLQPEYCPDALYEVMLKCWHPKAEMRPSFSELVSRISSIFSTFIGEHYVHVNATYVNVKCVAPYPSLLPSQDNIDGEGNT
notes: MET receptor tyrosine kinase (hepatocyte growth factor receptor), mouse, endogenous; Endogenous protein, precipitated with goat anti-MET (R&D Systems); With HGF the receptor is phosphorylated (pMET blot); source: endogenous, lysate of crude synaptosomes from P14 mouse neocortex; endogenous, primary mouse neocortical neurons (14 DIV)
B2: β-catenin (natural protein, UniProt Q02248 1-781, looked up)
chain: MATQADLMELDMAMEPDRKAAVSHWQQQSYLDSGIHSGATTTAPSLSGKGNPEEEDVDTSQVLYEWEQGFSQSFTQEQVADIDGQYAMTRAQRVRAAMFPETLDEGMQIPSTQFDAAHPTNVQRLAEPSQMLKHAVVNLINYQDDAELATRAIPELTKLLNDEDQVVVNKAAVMVHQLSKKEASRHAIMRSPQMVSAIVRTMQNTNDVETARCTAGTLHNLSHHREGLLAIFKSGGIPALVKMLGSPVDSVLFYAITTLHNLLLHQEGAKMAVRLAGGLQKMVALLNKTNVKFLAITTDCLQILAYGNQESKLIILASGGPQALVNIMRTYTYEKLLWTTSRVLKVLSVCSSNKPAIVEAGGMQALGLHLTDPSQRLVQNCLWTLRNLSDAATKQEGMEGLLGTLVQLLGSDDINVVTCAAGILSNLTCNNYKNKMMVCQVGGIEALVRTVLRAGDREDITEPAICALRHLTSRHQEAEMAQNAVRLHYGLPVVVKLLHPPSHWPLIKATVGLIRNLALCPANHAPLREQGAIPRLVQLLVRAHQDTQRRTSMGGTQQQFVEGVRMEEIVEGCTGALHILARDVHNRIVIRGLNTIPLFVQLLYSPIENIQRVAAGVLCELAQDKEAAEAIEAEGATAPLTELLHSRNEGVATYAAAVLFRMSEDKPQDYKKRLSVELTSSLFRTEPMAWNETADLGLDIGAQGEALGYRQDDPSYRSFHSGGYGQDALGMDPMMEHEMGGHHPGADYPVDGLPDLGHAQDLMDGLPPGDSNQLAWFDTDL
notes: β-catenin, mouse, endogenous; Endogenous protein, precipitated with mouse anti-β-catenin (BD Biosciences); With HGF a part of it is phosphorylated at Y142; source: endogenous, lysate of crude synaptosomes from P14 mouse neocortex; endogenous, primary mouse neocortical neurons (14 DIV)
B3: N-cadherin (natural protein, UniProt P15116 160-906, looked up)
chain: DWVIPPINLPENSRGPFPQELVRIRSDRDKNLSLRYSVTGPGADQPPTGIFIINPISGQLSVTKPLDRELIARFHLRAHAVDINGNQVENPIDIVINVIDMNDNRPEFLHQVWNGSVPEGSKPGTYVMTVTAIDADDPNALNGMLRYRILSQAPSTPSPNMFTINNETGDIITVAAGLDREKVQQYTLIIQATDMEGNPTYGLSNTATAVITVTDVNDNPPEFTAMTFYGEVPENRVDVIVANLTVTDKDQPHTPAWNAAYRISGGDPTGRFAILTDPNSNDGLVTVVKPIDFETNRMFVLTVAAENQVPLAKGIQHPPQSTATVSVTVIDVNENPYFAPNPKIIRQEEGLHAGTMLTTLTAQDPDRYMQQNIRYTKLSDPANWLKIDPVNGQITTIAVLDRESPNVKNNIYNATFLASDNGIPPMSGTGTLQIYLLDINDNAPQVLPQEAETCETPEPNSINITALDYDIDPNAGPFAFDLPLSPVTIKRNWTINRLNGDFAQLNLKIKFLEAGIYEVPIIITDSGNPPKSNISILRVKVCQCDSNGDCTDVDRIVGAGLGTGAIIAILLCIIILLILVLMFVVWMKRRDKERQAKQLLIDPEDDVRDNILKYDEEGGGEEDQDYDLSQLQQPDTVEPDAIKPVGIRRLDERPIHAEPQYPVRSAAPHPGDIGDFINEGLKAADNDPTAPPYDSLLVFDYEGSGSTAGSLSSLNSSSSGGDQDYDYLNDWGPRFKKLADMYGGGDD
notes: N-cadherin (cadherin-2), mouse, endogenous; Endogenous protein, precipitated with rabbit anti-N-cadherin (Santa Cruz Biotechnology); source: endogenous, lysate of crude synaptosomes from P14 mouse neocortex

Columns and labels:
Details in all cases: partners not purified
[1] = target: B1; assay: co-IP; crude synaptosomes from P14 mouse neocortex, PBS or 25 ng/ml HGF for 5 min at 37 °C, lysed in HEPES pH 7.4 buffer with 1% Triton X-100; IP with goat anti-MET, mouse anti-β-catenin or rabbit anti-N-cadherin (control IgG in parallel), protein G plus agarose, washes in lysis buffer plus 150 mM NaCl; Western blot; band ratios as fold change HGF/PBS, 3 experiments
[2] = target: B1; assay: proximity ligation; Duolink in situ PLA on fixed primary mouse neocortical neurons at 14 DIV, endogenous proteins, two antibodies (signal means 40 nm or less); PBS or 25 ng/ml HGF for 5, 10 or 30 min; PLA clusters per area of dendrite
β-catenin = target: B2; assay: co-IP; crude synaptosomes from P14 mouse neocortex, PBS or 25 ng/ml HGF for 5 min at 37 °C, lysed in HEPES pH 7.4 buffer with 1% Triton X-100; IP with goat anti-MET, mouse anti-β-catenin or rabbit anti-N-cadherin (control IgG in parallel), protein G plus agarose, washes in lysis buffer plus 150 mM NaCl; Western blot; band ratios as fold change HGF/PBS, 3 experiments
N-cadherin = target: B3; assay: as above

Binder | mean fold change (HGF/PBS) of co-immunoprecipitated protein [1] | fold increase in density of PLA signal (HGF against PBS) [2] | mean fold change (HGF/PBS) of co-immunoprecipitated protein (β-catenin) | mean fold change (HGF/PBS) of co-immunoprecipitated protein (N-cadherin)
synapsin 1 (natural protein, synapsin 1, mouse, endogenous; also called Syn 1; source: endogenous, lysate of crude synaptosomes from P14 mouse neocortex; endogenous, primary mouse neocortical neurons (14 DIV)) not shown | 1.8 fold | ~1.5 fold |  | 
B1 |  |  | 0.376 fold | 
B2 | 0.399 fold |  |  | 1.39 fold
B3 |  |  | 1.31 fold | 
